Data from US12077763B2, “RNA-based control of powdery mildew” (Greenlight Biosciences, Inc., priority 2021, dated 2024).

System: E. necator
Experiment: Leaf disc assay, dry inoculum (settling tower), decrease in disease severity / hyphal growth (Example 2)
Settings: decrease in disease severity (hyphal growth) relative to untreated control, value ± SE; for % decrease =/− SE TP1: time point 1 (untreated control hyphal growth ≥50%); for % decrease =/− SE TP2: time point 2

Row | Molecule | % decrease =/− SE TP1 [%] | % decrease =/− SE TP2 [%]
1 | GS1806: dsRNA trigger SEQ ID NO 181; gene target Serine/threonine-protein kinase SCH9 (nucleic acid) DNA: GACCAACCACAGCACATTTCAAAGACAAGTACGCCTAATGACCAAAAGTCAACCATCTTAGTATATCCTGTTTCATCTAGGAGAACCTCAGGAGCAAGGTATTCCGTGGTACCACAGAATGTATTTGTCGTCTCATTTTTGGTCAAGTTAGCTTTTGAAAGACCAAAATCACATAAAGCGATATGTCCATTAGCATCGAGCAGAATGTTTTCAGGTTTTAGATCGCGATAAACGATGTCATGTTTGTGAAGGTGCTGGAGAGCCAAAATGAGCTCAGCTATGTAAAATTTTGCTCGCTCTTCACAGAACCTTCCTTCTCTTTGTAAATGCCAAAAAAGTTCGCCTCCAGACATATAATCAGTTACCAAATAGAGATCACTTGGAGTTTGGAATGAAAATTTAAGTCCAACAATGAACTGCGACTCTGCCATAGCTGTTCTGACTAAGATATTTCTTTCGCCAACAGTATGGGCGACCTCTTTCTTTTGTACAATAACCTTTTTCTGAAGGACTTTCATGGCATAAATTCTTCCTGTATCTTTTTTCCTGACTTGATAAACTTGACCAAAAGTTCCTTTTCCTATCAGTTTCAAGAATT | 34 ± 7 | 21 ± 7
2 | GS3466 (nucleic acid) sense: CACGAAUACGUGUAAUUCCUUCUCUCAUGAUACUUUCUCGUUUCUCACAUUGCUUUUUGAAUUUAGAAAAUGCUAGCGUUUCUAAAUCUUUUUGUUGAGCUUUUAAAUCGUUGAUCAUGGCCAUUUGCUCGUCAAUUUUUACUAAAAAGUCCUUGACAUGCCUAUUUACAUUGAAUACGUUUCUGGUAACCUUGGUUUGAAUAUUUUUUGCUCGAUUUGCAUAACGCAAUGUAUUCUGAGUCUCAUCAAAAUGUGCACUAGACGGACUUACGCAAACAAUCAUUACGGUCUUGCAAUUGCCACCGAGAGAAAACUUUAGCAGUCGAGUUAACUUUGAAUUCCGAUAUGGAACGUGGUUUUUUUUUCGGGGAUCACAAA antisense: UUUGUGAUCCCCGAAAAAAAAACCACGUUCCAUAUCGGAAUUCAAAGUUAACUCGACUGCUAAAGUUUUCUCUCGGUGGCAAUUGCAAGACCGUAAUGAUUGUUUGCGUAAGUCCGUCUAGUGCACAUUUUGAUGAGACUCAGAAUACAUUGCGUUAUGCAAAUCGAGCAAAAAAUAUUCAAACCAAGGUUACCAGAAACGUAUUCAAUGUAAAUAGGCAUGUCAAGGACUUUUUAGUAAAAAUUGACGAGCAAAUGGCCAUGAUCAACGAUUUAAAAGCUCAACAAAAAGAUUUAGAAACGCUAGCAUUUUCUAAAUUCAAAAAGCAAUGUGAGAAACGAGAAAGUAUCAUGAGAGAAGGAAUUACACGUAUUCGUG | 21 ± 7 | 19 ± 11
3 | GS3467 (nucleic acid) sense: CCCAGCUUCAUUAGAGUGGUCAAAGAAACCAUUGUAGGUGUGAAUAGGAGGCUGAACUAGAGAUAAGAUGGUAUUAUGCAGAAUAUGACAAGUAGGAUUGCAUUGCUUAUCUUUAAUAAUCUCUCUCUUAAUUGUUAUCUUAGAAGCAAAGUUAGUUUCAUCAUCGCUUAAUUUUAAAUUAAUAAGUGAAACUUUGCUUCCAUAAGGUGAGCUACAAGGUGAUGGCUGAAUUAAAUCUUCAACUUUUUUAUUAUCAGUCCUUAUUUCUAGGUCAUAUGACCUAGAAUCUUCUAUAAAUUUUCUAAGCUUAUUUGAAGAAUCCUUAGUAGGUGUUUUUGCAAUGAAACGAUUAUUUUCUUCAGGUAAGAUUGUAGCGACGCUAACCGAUGACUCAGU antisense: ACUGAGUCAUCGGUUAGCGUCGCUACAAUCUUACCUGAAGAAAAUAAUCGUUUCAUUGCAAAAACACCUACUAAGGAUUCUUCAAAUAAGCUUAGAAAAUUUAUAGAAGAUUCUAGGUCAUAUGACCUAGAAAUAAGGACUGAUAAUAAAAAAGUUGAAGAUUUAAUUCAGCCAUCACCUUGUAGCUCACCUUAUGGAAGCAAAGUUUCACUUAUUAAUUUAAAAUUAAGCGAUGAUGAAACUAACUUUGCUUCUAAGAUAACAAUUAAGAGAGAGAUUAUUAAAGAUAAGCAAUGCAAUCCUACUUGUCAUAUUCUGCAUAAUACCAUCUUAUCUCUAGUUCAGCCUCCUAUUCACACCUACAAUGGUUUCUUUGACCACUCUAAUGAAGCUGGG | 25 ± 4 | 13 ± 7
